Experimental data reported in publication PMC3580838.

Experiments:
GST:CcmC(H60A/H184A) = GST:CcmC(H60A/H184A) (UniProt P0ABM1); test: pull-down
GST:CcmC(W^5A/D126A) = GST:CcmC(W^5A/D126A) (UniProt P0ABM1); test: pull-down

% CcmE bound with heme (GST:CcmC(H60A/H184A)): < 4% | % holoCcmE bound with heme (GST:CcmC(H60A/H184A)): < 3% | % CcmE bound with heme (GST:CcmC(W^5A/D126A)): < 4% | % holoCcmE bound with heme (GST:CcmC(W^5A/D126A)): < 3%
Substance: CcmE (from UniProt P69490 30-159) (natural protein)
